From patent US11370846B2, “Compositions and methods to regulate Renalase in the treatment of cancer” (Yale University, priority 2014, dated 2022)
Where two headings read alike, the source gives them in different places.

Assays:
melanoma cells = assay: Melanoma cell lines in culture, viability/growth; type: cell-based, human
Protocol: (§1) FIG. 19A through FIG. 19D are a series of images and charts showing that inhibition of RNLS signaling is cytotoxic to melanoma cells in vitro. […] FIG. 19B comprises two charts depicting relative cell viability: Left panel: Cells were treated with indicated antibodies for 72 hrs and cell viability was determined using WST-1; m28-RNLS (also known as 1D-28-4), m37-RNLS (also known as 1D-37-10): monoclonal antibodies raised against RNLS peptide RP220; Right panel: A375.S2 cells treated with increasing doses of m28-RNLS for 72 hrs and cell viability determined with a WST-1 assay; n=6, * indicates p<0.05 and ** indicates p<0.005. FIG. 19C comprises representative photos of A375.S2, SkMe128, and SkMe15 after 72 hrs incubation with either control rabbit IgG or m28-RNLS. FIG. 19D is a chart depicting relative cell viability, comprising amino acid (AA) sequence of RNLS peptide antagonist (RP220A).
(§2) For additional studies, cell viability was determined using WST-1 reagent (Roche Diagnostics, Indianapolis, Ind., USA) according to the manufacturers' instruction. Absorbances were read using a microplate reader (Power Waves XS, BioTek Instruments, Winooski, Vt., USA).

PDACC = PDACC growth with anti-RNLS antibodies, WST-1; type: cell-based, human; details: 72 hrs
Protocol: FIG. 25A through FIG. 25E are a series of charts and images showing that inhibition of RNLS signaling is cytotoxic to cancer cells in vitro and in vivo. FIG. 25A is a chart showing relative cell viability following transient transfection of Panc1 cells using a RNLS-specific siRNA, or a non-specific control siRNA, and cell viability assayed 96 h later using the WST-1 reagent; n=6, ** indicates p<0.001. FIG. 25B is a chart showing relative cell viability when cells were treated with indicated antibodies for 72 hrs and cell viability determined using WST-1; m28-RNLS and m37-RNLS: monoclonal antibodies raised against RNLS peptide RP220, ab31291: Abcam polyclonal antibody raised against a partial sequence of RP-220; n=6, * indicates p<0.005. […] FIG. 25D is a chart showing tumor volume increase after athymic nude mice received subcutaneous injection of Panc1 cells transduced with RNLS shRNA (sh-RNLS) or control (sh-Control); tumor volume measured every […] for up to 30 days, n=6 each; * indicates p<0.05. FIG. 25E is chart showing tumor volume increase after nude mice were xenografted with BxPC3; tumor volume measured prior to treatment every 3-4 days with 2 mg/kg of either rabbit IgG as a negative control or with m28-RNLS, n=10, * indicates p<0.05.

BxPC3 xenografted tumors = assay: BxPC3 pancreatic xenograft in athymic nude mice; type: in vivo, mouse
Protocol: Immunohistochemistry was performed as described previously (Guo et al., 2012 Cancer Science. 103(8):1474-80). Briefly tumor tissues were formalin-fixed, paraffin-embedded and cut into 5-μm sections on glass slides. The slides were de-paraffinized and hydrated, followed by antigen retrieval in a pressure cooker containing 10 mM sodium citrate, pH6 buffer. The sections were blocked in 3% hydrogen peroxide for 30 min and 2.5% normal horse serum in PBS/0.1% Tween20 for 1 h followed by incubation with primary antibody and isotype control IgG overnight at 4° C. […]
Xenograft tumors were established by subcutaneous injection of BxPC3 cells (2×10^6 in 100 μl of PBS, pH 7.6). […] Tumor size was measured with digital calipers and volume was calculated according to the formula (length×width)×π/2. […] These animals received no further treatments, and tumor size and volume were measured for up to 30 days.
At the end of the study, the mice were sacrificed, the tumors were excised and immediately snap-frozen in liquid nitrogen and stored at −80° C. […] Sections were examined by light microscopy and the apoptosis index was determined by counting >1000 cells in 5 randomly selected high-power fields (×200 magnification).

A375.S2 melanoma cells = assay: Cell viability, WST-1, A375.S2 melanoma cells; type: cell-based, human; details: A375.S2, 72 hrs
Protocol: as §1, §2

B1: 1D-28-4: rabbit anti-renalase monoclonal raised against peptide RP-220 (antigen 1D); heavy chain SEQ ID NO:9, light chain SEQ ID NO:10 (antibody)
heavy: METGLRWLLLVAVLKGVQCQSVEESGGRLVTPGTPLTLTCTVSGFSLSSFAVGWVRQAPGKGLEYIGIISSVGITRYASWAAGRFTISKTSTTVDLKITSPTTEDTATYFCARYGYSGDVNRLDLWGQGTLVTVSSGQPKAPSVFPLAPCCGDTPSSTVTLGCLVKGYLPEPVTVTWNSGTLTNGVRTFPSVRQSSGLYSLSSVVSVTSSSQPVTCNVAHPATNTKVDKTVAPSTCSKPTCPPPELLGGPSVFIFPPKPKDTLMISRTPEVTCVVVDVSQDDPEVQFTWYINNEQVRTARPPLREQQFNSTIRVVSTLPIAHQDWLRGKEFKCKVHNKALPAPIEKTISKARGQPLEPKVYTMGPPREELSSRSVSLTCMINGFYPSDISVEWEKNGKAEDNYKTTPAVLDSDGSYFLYSKLSVPTSEWQRGDVFTCSVMHEALHNHYTQKSISRSPGK
light: MDTRAPTQLLGLLLLWLPGATFAQVLTQTASPVSAAVGGTVTINCQASQSVYDNNNLAWYQQKPGQPPKQLIYGASTLASGVSSRFKGSGSGTQFTLTISGVQCDDAATYYCLGEFSCSSADCFAFGGGTEVVVKGDPVAPTVLIFPPSADLVATGTVTIVCVANKYFPDVTVTWEVDGTTQTTGIENSKTPQNSADCTYNLSSTLTLTSTQYNSHKEYTCKVTQGTTSVVQSFNRGDC
modifications: oryctolagus cuniculus
melanoma cell growth/viability in culture (melanoma cells): inhibits melanoma cells in culture | melanoma cell growth/viability in culture (melanoma cells; listed as m28-RNLS): decreased the viability of all (total of 5) melanoma cell lines tested | PDACC growth (PDACC): inhibitory effects | p21 positive cells (BxPC3 xenografted tumors; IHC): 178.1±11.4 positive cells/high power field | decrease in expression of Ki67 vs IgG (BxPC3 xenografted tumors; mouse, in vivo): 2.5 fold | cytotoxicity with increasing dose (A375.S2 melanoma cells): increasing levels of cytotoxicity in correlation with increasing treatment concentrations
